# Results from patent publication US6710030B1, “Contortrostain (CN) and methods for its use in preventing metastasis and other conditions” (University of Southern California, priority 1993, dated 2004).
# B1: contortrostatin (protein)
# chain: DAPANPCCDAATCKLTTGSQCADGLCCDQCKFMKEGTVCRRARGDDLDDYCNGISAGCPRNPFHA
# Legend:
# purified αvβ5 = purified αvβ5 (Homo sapiens, UniProt P06756+P18084); assay: Solid-phase binding of contortrostatin to purified αvβ5 (modified ELISA); details: 100 ng αvβ5 per well
# Chain of purified αvβ5 (P06756 31-889 limits assumed): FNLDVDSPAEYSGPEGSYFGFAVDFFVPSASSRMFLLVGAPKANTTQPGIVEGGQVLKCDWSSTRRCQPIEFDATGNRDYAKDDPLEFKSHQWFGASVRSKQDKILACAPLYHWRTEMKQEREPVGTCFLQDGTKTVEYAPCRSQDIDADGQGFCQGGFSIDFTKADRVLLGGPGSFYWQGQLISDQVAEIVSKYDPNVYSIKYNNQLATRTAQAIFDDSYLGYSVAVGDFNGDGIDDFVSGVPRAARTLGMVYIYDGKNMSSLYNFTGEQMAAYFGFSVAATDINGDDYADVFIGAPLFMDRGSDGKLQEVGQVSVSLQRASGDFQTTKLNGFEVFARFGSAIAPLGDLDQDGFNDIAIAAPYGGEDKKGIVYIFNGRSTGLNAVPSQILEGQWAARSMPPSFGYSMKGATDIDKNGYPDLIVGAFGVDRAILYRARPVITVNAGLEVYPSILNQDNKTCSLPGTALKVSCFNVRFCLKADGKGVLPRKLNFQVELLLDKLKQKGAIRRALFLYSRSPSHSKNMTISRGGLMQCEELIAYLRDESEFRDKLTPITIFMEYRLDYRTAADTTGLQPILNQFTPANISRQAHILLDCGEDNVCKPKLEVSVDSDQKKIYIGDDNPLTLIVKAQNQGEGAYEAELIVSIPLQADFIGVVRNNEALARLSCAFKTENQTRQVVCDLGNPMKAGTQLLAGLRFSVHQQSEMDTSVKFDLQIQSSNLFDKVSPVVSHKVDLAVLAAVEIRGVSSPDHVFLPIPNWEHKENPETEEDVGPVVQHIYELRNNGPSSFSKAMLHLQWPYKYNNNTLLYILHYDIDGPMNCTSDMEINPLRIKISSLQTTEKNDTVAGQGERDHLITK
# Chain of purified αvβ5 (P18084 24-799): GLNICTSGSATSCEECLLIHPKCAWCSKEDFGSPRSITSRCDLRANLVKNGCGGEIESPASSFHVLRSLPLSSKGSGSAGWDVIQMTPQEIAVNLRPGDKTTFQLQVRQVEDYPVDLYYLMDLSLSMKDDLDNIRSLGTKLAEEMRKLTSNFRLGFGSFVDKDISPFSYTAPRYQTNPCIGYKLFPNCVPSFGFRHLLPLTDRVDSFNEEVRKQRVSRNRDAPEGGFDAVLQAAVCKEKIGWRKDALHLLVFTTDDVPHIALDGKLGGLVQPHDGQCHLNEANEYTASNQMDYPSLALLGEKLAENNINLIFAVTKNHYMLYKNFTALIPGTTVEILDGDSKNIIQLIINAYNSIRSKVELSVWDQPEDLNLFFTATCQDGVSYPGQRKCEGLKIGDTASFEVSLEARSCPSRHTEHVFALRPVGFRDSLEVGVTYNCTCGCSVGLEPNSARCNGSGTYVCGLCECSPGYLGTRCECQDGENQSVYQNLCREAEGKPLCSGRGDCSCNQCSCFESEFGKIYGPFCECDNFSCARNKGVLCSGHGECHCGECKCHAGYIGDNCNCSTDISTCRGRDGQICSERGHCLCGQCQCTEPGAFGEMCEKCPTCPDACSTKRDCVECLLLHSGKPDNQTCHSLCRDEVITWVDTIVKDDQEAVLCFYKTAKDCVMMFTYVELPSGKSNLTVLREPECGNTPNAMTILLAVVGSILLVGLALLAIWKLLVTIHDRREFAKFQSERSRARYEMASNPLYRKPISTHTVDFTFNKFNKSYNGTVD
# Protocol: Experiment 3: Detection of the binding of contortrostatin to αvβ5: Direct evidence that contortrostatin binds to αvβ5 was collected by solid-phase binding assay using purified αvβ5 and a modified ELISA. Soluble αvβ5 (100 ng) was immobilized on wells of a 96-well plate at 4° C. overnight. Excess protein was washed off, and unbound sites were blocked with 1% BSA/PBS. Contortrostatin at various concentrations was allowed to bind to the coated plate at room temperature for one hour. After three washes with PBS, the bound contortrostatin molecules were detected with 1:1,000 antiserum against contortrostatin. Goat anti-rabbit antibody conjugated with alkaline phosphotase was used as a secondary antibody. The bound antibodies were quantitated by applying substrate disodium p-nitrophenyl phosphate (pNPP) and determining the light absorbance at 405 nm 15 minutes after the initiation of the chromagenic reaction. The background is defined by the binding of antiserum against the disintegrin to immobilized αvβ5. Specific binding is obtained by substrating the background from the total binding. Analyses of each concentration of ligand were performed in triplicate.
# MDA-MB-435 cells [1] = assay: Invasion of MDA-MB-435 cells through Matrigel-coated invasion chamber; type: cell-based, human; details: 48 hrs
# Protocol: 2.5×10^3 MDA-MB-435 cells treated with various concentration of CN were allowed to migrate across the Matrigel layer for 48 hrs. Assays at each CN concentration were performed in triplicate. Cells invaded through the Matrigel filter were fixed and stained. Invaded cells were quantitated with microscope by the mean of cell numbers in three randomly selected vision field.
# rabbit PRP = assay: ADP-induced platelet aggregation in rabbit PRP; type: cell-based; details: 20 μM ADP
# Protocol: (§1) Column fractions obtained during purification were assayed for activity using fresh human platelet rich plasma (PRP) prepared from blood obtained from human volunteers who had had no medication for at least two weeks. Blood (36 ml) was drawn into 4 ml of 0.1 M citrate and centrifuged at 150×g for 20 minutes. The supernatant, PRP, was removed and the remaining blood was centrifuged at 10,000 RPM to obtain platelet poor plasma (PPP). Platelet counts were adjusted to 250,000 platelets/μl using a Coulter counter. A Helena four channel aggregometer was used to monitor platelet aggregation. Inhibition of ADP-induced platelet aggregation was monitored at 37° C. by adding venom fractions one minute prior to the addition of ADP (10-20 μM final concentration). […] Rabbit and canine PRP was prepared by the same procedure and used in the studies described below.
# (§2) CN inhibited ADP-induced platelet aggregation in human, canine, and rabbit PRPs (FIG. 6). Empty circles represent human platelet rich plasma, solid circles represent canine PRP, and empty triangles represent rabbit PRP. Varying concentration of CN were preincubated for one minute with PRP prior to the addition of ADP.
# [2] = test system: human platelet rich plasma; details: cited from earlier work
# [3] = test system: human platelet rich plasma; assay: ADP-induced platelet aggregation in human platelet rich plasma; type: cell-based
# Protocol: as §1, §2
# MDA-MB-435 cells [4] = assay: Growth of MDA-MB-435 cells in vitro on Matrigel-coated plates; type: cell-based, human
# Protocol: MDA-MB-435 cells (0.3×10^6/ml) were added to each well of a 6-well cell culture plates coated with 1/100 dilution of Matrigel . Cells were then treated with CN at various concentration. Growth curves of MDA-MB-435 cells in vitro without CN (circles), and with CN at 100 nM (triangles), and 500 nM (diamonds) are illustrated. Six-well cell culture plates coated with Matrigel (1/100 dilute) were seeded with 3 ml of MDA-MB-435 cell suspension (0.3×10^6/ml). Cell density was determined every 24 hours.
# T24 cells = assay: Cellular binding to laminin and Matrigel; type: cell-based, human
# platelets = assay: Platelet release reactions (granule contents); type: cell-based
# Description: Platelets comprise a plurality of different granules, including alpha granules and dense granules, whose contents are released when the platelets aggregate. […] Thus, normal platelet physiological processes are necessarily further perturbed with administration of applaggin.
molecule,measurement,setting,value
B1,binding to immobilized αvβ5,purified αvβ5,binds to αvβ5 in a dose-dependent and saturable manner
same,invasion of synthetic basement membrane by MDA-MB-435 cells,MDA-MB-435 cells [1],inhibitory effect
same,IC50 of ADP-induced rabbit platelet aggregation,rabbit PRP,17.3 µg/mL
same,50% inhibition (IC50) of human platelet aggregation in platelet rich plasma,[2],0.8 µg/mL
same,concentration that completely inhibits ADP-induced platelet aggregation,[2]; preincubation for 1 minute,approximately 100 nM
same,IC50 of ADP-induced human platelet aggregation,"[3]; 10 μM ADP, preincubated one minute",0.73 µg/mL
same,platelet aggregation inhibitory activity after reduction of the disulfide bonds,[3]; even at concentrations ten times the IC50,completely eliminated platelet aggregation inhibitory activity
same,cytotoxicity during in vitro culture,MDA-MB-435 cells [4],no direct cytotoxicity
same,proliferation of MDA-MB-435 cells,MDA-MB-435 cells [4]; CN at 100 nM and 500 nM,proliferate equally well as control cells
same,cellular binding to Matrigel,T24 cells,does not inhibit cellular binding to Matrigel
same,cellular binding to laminin,T24 cells,does not significantly inhibit cellular binding to laminin
same,platelet release reactions,platelets,does not inhibit platelet release reactions
